Assay results: US5783681, “Androgen regulation with DNA sequences of rat probasin gene” (University of Manitoba)

Assays:
Settings in all cases: tags: GST fusion, expressed in E. coli; chain copies: 2
[1] = biological target: T1, GST-AR1 (androgen receptor DNA- and steroid-binding domains) (Rattus norvegicus, UniProt P15207 P15207:541-902); experiment: footprint; site -140 to -117 protected within probasin 5'-flanking DNA
Method: (§1) The DNase I footprinting was performed essentially as described (Von der Ahe et al., 1993; Rennie et al., 1993). Proteins (10 ng to 18 µg) were incubated with 20,000 cpm of the labelled DNA in 100 µl of DNA binding buffer for 30 min at 20° C. After adjusting the samples to 4 mM MgCl_2 and 2.5 CaCl_2 mM, 5 ng of DNase I was added and allowed to digest the DNA for 2 minutes at 20° C. The reaction was stopped by adding 100 µl of stop buffer (0.25% SDS, 0.3M EGTA, and 500 µg/ml of proteinase K) and incubated for 1 hour at 37° C. The samples were extracted with phenol-chloroform; precipitated with 0.2M sodium acetate, 85 µg/ml carrier tRNA, and 2 volumes of ethanol; redissolved in 3 µl of formamide dye solution. After heating at 70° C. for 10 minutes and rapid cooling on ice, the samples were loaded, together with an A+G Maxam-Gilbert sequencing reaction to obtain a purine ladder, on 7% polyacrylamide/urea gels (acrylamide:bis, 30:1) and run (Rennie et al., 1993). The gels were dried and set up for autoradiography.
(§2) The androgen response elements (ARE) are located at −241 to −223 (ARE-1) and −140 to −117 (ARE-2). The sequence of ARE-1 and ARE-2 in the 5'-flanking PB DNA were determined using DNase I footprinting assays with peptides containing the DNA-binding domain of the androgen receptor and later bioassay of the functional domains. […]

[2] = biological target: T2, GST-AR2 (androgen receptor DNA-binding domain and hinge region) (Rattus norvegicus, UniProt P15207 P15207:541-650); experiment: as above
T2 sequence (P15207 541-650, one chain of several): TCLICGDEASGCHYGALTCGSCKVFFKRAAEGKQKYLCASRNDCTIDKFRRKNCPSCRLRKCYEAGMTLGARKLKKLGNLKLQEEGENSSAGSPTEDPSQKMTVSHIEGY
Method: as §1, §2

[3] = biological target: T1, GST-AR1 (androgen receptor DNA- and …); experiment: footprint; site -236 to -223 protected within probasin 5'-flanking DNA
Method: as §1, §2

[4] = biological target: T2, GST-AR2 (androgen receptor DNA-binding …); experiment: as above
Method: as §1, §2

T1 sequence (P15207 541-902, one chain of several): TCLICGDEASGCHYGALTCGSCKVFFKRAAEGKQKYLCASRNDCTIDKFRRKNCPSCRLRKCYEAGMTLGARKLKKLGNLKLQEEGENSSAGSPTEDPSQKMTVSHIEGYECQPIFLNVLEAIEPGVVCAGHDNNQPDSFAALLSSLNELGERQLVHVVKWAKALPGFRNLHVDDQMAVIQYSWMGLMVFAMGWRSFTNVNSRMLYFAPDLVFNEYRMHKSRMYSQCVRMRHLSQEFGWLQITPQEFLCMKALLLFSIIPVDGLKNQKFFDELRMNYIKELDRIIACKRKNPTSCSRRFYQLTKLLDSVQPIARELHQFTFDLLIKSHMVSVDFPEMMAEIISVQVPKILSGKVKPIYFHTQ

| Binder | binding result [1] | binding result [2] | binding result [3] | binding result [4] |
| --- | --- | --- | --- | --- |
| probasin ARE-2 (dsDNA) DNA 1: GTAAAGTACTCCAAGAACCTATTT DNA 2: AAATAGGTTCTTGGAGTACTTTAC | binds | binds | – | – |
| probasin ARE-1 (dsDNA) DNA 1: ATAGCATCTTGTTCTTAGT DNA 2: ACTAAGAACAAGATGCTAT | – | – | binds | binds |
